What was measured:
[1] = molecular target: T1, MBP-OsTORKD (rice, UniProt Q0DJS1 1896-2465); assay: ITC
T1 chain: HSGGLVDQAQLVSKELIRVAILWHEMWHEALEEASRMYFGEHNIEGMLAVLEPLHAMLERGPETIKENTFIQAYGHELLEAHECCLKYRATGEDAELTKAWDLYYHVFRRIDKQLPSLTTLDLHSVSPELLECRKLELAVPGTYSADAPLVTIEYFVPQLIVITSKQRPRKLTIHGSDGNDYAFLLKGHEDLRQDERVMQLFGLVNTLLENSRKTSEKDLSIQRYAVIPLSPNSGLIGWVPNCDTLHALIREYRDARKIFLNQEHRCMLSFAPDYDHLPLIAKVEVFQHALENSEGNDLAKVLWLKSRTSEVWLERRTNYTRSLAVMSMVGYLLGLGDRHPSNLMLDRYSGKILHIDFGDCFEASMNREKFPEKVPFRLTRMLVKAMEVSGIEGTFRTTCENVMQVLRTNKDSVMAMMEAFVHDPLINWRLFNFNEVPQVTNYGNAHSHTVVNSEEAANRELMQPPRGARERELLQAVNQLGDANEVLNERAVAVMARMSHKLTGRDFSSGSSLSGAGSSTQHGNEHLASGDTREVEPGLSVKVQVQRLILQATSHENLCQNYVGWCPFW

[2] = molecular target: T1, MBP-OsTORKD; assay: ITC; His-OsFKBP12 in the syringe (10 mM) titrated into MBP-OsNIN8, MBP-OsNIN8m or MBP-OsTORKD in the cell (0.1 mM); 25°C; 20 injections of 2.5 μL, interval 200 s; proteins dialysed in 50 mM potassium phosphate pH 6.4

- Kd [1]: 81.8 µM
- stoichiometry N (OsFKBP12 per OsTORKD) [2]: 6
B1: His-OsFKBP12 (natural protein)
chain: MGFEKTILKAGTGPKPVKGQKVTVHCTGFGKDNDLAKKFWSTKDAGQEPFSFNIGQGSVIKGWDEGVMTMQVGEVARIQCTPDYAYGASGFPAWGIRPNSVLVFEIEVLSAQ

From PMC11732086 (2024)
